Data as given in the supplement of paper PMC11246515.
± gives the standard deviation of the averaged measurements.

Test: total protein half-life in vivo (active degradation + dilution); higher = more stable protein
[1] = E. coli NCM3722 delta-clpP delta-lon delta-hslV, growth: N-lim chemostat, doubling time 6 h
[2] = E. coli NCM3722 delta-clpP, growth: N-lim chemostat, doubling time 6 h
[3] = E. coli NCM3722 delta-hslV, growth: N-lim chemostat, doubling time 6 h
[4] = E. coli NCM3722 delta-lon, growth: N-lim chemostat, doubling time 6 h
[5] = E. coli NCM3722 delta-smpB, growth: N-lim chemostat, doubling time 6 h
[6] = wild type E. coli NCM3722, growth: C-lim chemostat, doubling time 3 h
[7] = wild type E. coli NCM3722, growth: C-lim chemostat, doubling time 6 h
[8] = wild type E. coli NCM3722, growth: C-lim chemostat, doubling time 12 h
[9] = wild type E. coli NCM3722, growth: N-lim chemostat, doubling time 6 h
[10] = wild type E. coli NCM3722, growth: N-lim chemostat, doubling time 12 h
[11] = wild type E. coli NCM3722, growth: P-lim chemostat, doubling time 6 h
[12] = wild type E. coli NCM3722, growth: P-lim chemostat, doubling time 12 h

Sequence	total protein half-life in vivo [1]	total protein half-life in vivo [2]	total protein half-life in vivo [3]	total protein half-life in vivo [4]	total protein half-life in vivo [5]	total protein half-life in vivo [6]	total protein half-life in vivo [7]	total protein half-life in vivo [8]	total protein half-life in vivo [9]	total protein half-life in vivo [10]	total protein half-life in vivo [11]	total protein half-life in vivo [12]
MMEGQQHGEQLKRGLKNRHIQLIALGGAIGTGLFLGSASVIQSAGPGIILGYAIAGFIAFLIMRQLGEMVVEEPVAGSFSHFAYKYWGSFAGFASGWNYWVLYVLVAMAELTAVGKYIQFWYPEIPTWVSAAVFFVVINAINLTNVKVFGEMEFWFAIIKVIAVVAMIIFGGWLLFSGNGGPQATVSNLWDQGGFLPHGFTGLVMMMAIIMFSFGGLELVGITAAEADNPEQSIPKATNQVIYRILIFYIGSLAVLLSLMPWTRVTADTSPFVLIFHELGDTFVANALNIVVLTAALSVYNSCVYCNSRMLFGLAQQGNAPKALASVDKRGVPVNTILVSALVTALCVLINYLAPESAFGLLMALVVSALVINWAMISLAHMKFRRAKQEQGVVTRFPALLYPLGNWICLLFMAAVLVIMLMTPGMAISVYLIPVWLIVLGIGYLFKEKTAKAVKAH	5.89 ± 0.35 h	4.94 ± 0.16 h	5.65 h	4.684 ± 0.041 h	5.14 ± 0.68 h	2.98 h	5.81 ± 0.44 h	11.914 ± 0.0083 h	5.68 ± 1.1 h	9.07 ± 0.36 h	5.39 ± 0.41 h	10.1 ± 1.7 h
MMEILRGSPALSAFRINKLLARFQAARLPVHNIYAEYVHFADLNAPLNDDEHAQLERLLKYGPALASHAPQGKLLLVTPRPGTISPWSSKATDIAHNCGLQQVNRLERGVAYYIEAGTLTNEQWQQVTAELHDRMMETVFFALDDAEQLFAHHQPTPVTSVDLLGQGRQALIDANLRLGLALAEDEIDYLQDAFTKLGRNPNDIELYMFAQANSEHCRHKIFNADWVIDGEQQPKSLFKMIKNTFETTPDHVLSAYKDNAAVMEGSEVGRYFADHETGRYDFHQEPAHILMKVETHNHPTAISPWPGAATGSGGEIRDEGATGRGAKPKAGLVGFSVSNLRIPGFEQPWEEDFGKPERIVTALDIMTEGPLGGAAFNNEFGRPALNGYFRTYEEKVNSHNGEELRGYHKPIMLAGGIGNIRADHVQKGEINVGAKLVVLGGPAMNIGLGGGAASSMASGQSDADLDFASVQRDNPEMERRCQEVIDRCWQLGDANPILFIHDVGAGGLSNAMPELVSDGGRGGKFELREILSDEPGMSPLEIWCNESQERYVLAVAADQLPLFDELCKRERAPYAVIGEATEELHLSLHDRHFDNQPIDLPLDVLLGKTPKMTRDVQTLKAKGDALAREGITIADAVKRVLHLPTVAEKTFLVTIGDRSVTGMVARDQMVGPWQVPVANCAVTTASLDSYYGEAMAIGERAPVALLDFAASARLAVGEALTNIAATQIGDIKRIKLSANWMAAAGHPGEDAGLYEAVKAVGEELCPALGLTIPVGKDSMSMKTRWQEGNEEREMTSPLSLVISAFARVEDVRHTITPQLSTEDNALLLIDLGKGNNALGATALAQVYRQLGDKPADVRDVAQLKGFYDAIQALVAQRKLLAYHDRSDGGLLVTLAEMAFAGHCGIDADIATLGDDRLAALFNEELGAVIQVRAADREAVESVLAQHGLADCVHYVGQAVSGDRFVITANGQTVFSESRTTLRVWWAETTWQMQRLRDNPECADQEHQAKSNDADPGLNVKLSFDINEDVAAPYIATGARPKVAVLREQGVNSHVEMAAAFHRAGFDAIDVHMSDLLTGRTGLEDFHALVACGGFSYGDVLGAGEGWAKSILFNDRVRDEFATFFHRPQTLALGVCNGCQMMSNLRELIPGSELWPRFVRNTSDRFEARFSLVEVTQSPSLLLQGMVGSQMPIAVSHGEGRVEVRDAAHLAALESKGLVALRYVDNFGKVTETYPANPNGSPNGITAVTTESGRVTIMMPHPERVFRTVSNSWHPENWGEDGPWMRIFRNARKQLG	5.77 ± 0.51 h	4.8 ± 0.37 h	4.73 ± 0.32 h	5.07 ± 0.55 h	4.63 ± 0.36 h	3.03 ± 0.051 h	5.98 ± 0.39 h	10.4 ± 0.62 h	4.72 ± 0.081 h	8.05 ± 0.21 h	6.31 ± 0.075 h	11.5 ± 0.43 h
MMHRLNLNGYEPDRHHEAAVAFCIHAGTDELTSPVHQHRKGQLILALHGAITCTVENALWMVPPQYAVWIPGGVEHSNQVTANAELCFLFIEPSAVTMPTTCCTLKISPLCRELILTLANRTTTQRAEPMTRRLIQVLFDELPQQPQQQLHLPVSSHPKIRTMVEMMAKGPVEWGALGQWAGFFAMSERNLARLIVKETGLSFRQWRQQLQLIMALQGLVKGDTVQKVAHTLGYDSTTAFITMFKKGLGQTPGRYIARLTTVSPQSAKPDPRQ	4.97 ± 0.56 h	–	–	–	–	–	–	–	–	–	–	–
MMIKTRFSRWLTFFTFAAAVALALPAKANTWPLPPAGSRLVGENKFHVVENDGGSLEAIAKKYNVGFLALLQANPGVDPYVPRAGSVLTIPLQTLLPDAPREGIVINIAELRLYYYPPGKNSVTVYPIGIGQLGGDTLTPTMVTTVSDKRANPTWTPTANIRARYKAQGIELPAVVPAGLDNPMGHHAIRLAAYGGVYLLHGTNADFGIGMRVSSGCIRLRDDDIKTLFSQVTPGTKVNIINTPIKVSAEPNGARLVEVHQPLSEKIDDDPQLLPITLNSAMQSFKDAAQTDAEVMQHVMDVRSGMPVDVRRHQVSPQTL	5.73 h	4.84 h	–	6.23 ± 1.4 h	5.56 h	1.51 ± 0.55 h	2.85 ± 0.33 h	4.13 ± 0.68 h	6.17 h	10.5 h	5.17 h	3.45 h
